{
  "source": "patent US20060166860A1",
  "about": "“Zinc transporter compositions for the treatment of cardiovascular diseases” (priority 2002, published 2006)",
  "key": {"LTCC [1]": {"tested_on": "LTCC", "test": "Zinc influx in astrocytes pre-treated with zinc", "format": "cell-based", "conditions": "astrocytes pre-treated with 20, 50 or 100 μM zinc for 24 or 48 hours (FIG. 10)", "procedure": "Cells were superfused with a Ringer's solution containing: 120 mM NaCl, 5 mM KCl, 20 mM glucose, 10 mM Hepes, 0.5 mM MgCl, 1.8 mM CaCl2 at pH 7.4. For depolarization experiments aimed to fully activate the LTCC, 45 mM NaCl were replaced with 45 mM KCl. ZnSO4 was added at the indicated concentration to this solution.\nCells were incubated for 30 minutes with 5 μM of the ratiometric dye Fura-2-AM (TEF Labs) in 0.1% BSA-sodium Ringer's solution. Fura-2-AM binds zinc with very high affinity. After incubation, the cells were washed in Ringer's solution and the cover glass mounted on a holder that allowed the perfusion of liquids into the cells. Signals resulting from Ca^+2 or Zn^+2 changes were distinguished by using the intracellular zinc chelator TPEN. Changes in intracellular cation concentration were monitored by a single cell imaging system, consisting of a Zeiss Axiovert 100, inverted microscope, Polychrome II monochromator (TILL Photonics) and a cooled CCD (PCO). The data was acquired and processed by Axon Imaging Workbench 2, Excel and KleidaGraph. […] The data was analyzed post acquisition, by selecting single cells (30-50) from the field of view and recording their activity.\nAstrocytes were pre-treated with 20, 50 or 100 μM of zinc for 24 or 48 hours, and subsequent rates of zinc influx were determined. […]"}, "ZnT-1": {"tested_on": "ZnT-1", "test": "ZnT-1 expression in cultured brain astrocytes by Western Blot", "format": "cell-based", "conditions": "20 and 50 μM Zn for 12 hours (FIG. 9)", "procedure": "(§1) Western Blots were carried out in the classical method described in Molecular Cloning—A laboratory manual by Sambroock et al., Cold Spring Harbor Laboratory Press, 2nd edition, 1989.\nIn astrocytes, zinc influx is mainly mediated by the LTCC. Astrocytes were treated with sub-lethal amounts (20 and 50 μM) of Zn for 12 hours, and ZnT-1 expression evaluated by Western Blot (FIG. 9b)."}, "intracellular zinc": {"tested_on": "intracellular zinc", "test": "Fura-2 fluorescence signal of intracellular zinc in HEK 293 cells", "format": "cell-based, human", "conditions": "HEK 293 cells exposed to zinc, then TPEN (FIG. 1, FIG. 3 inset)", "procedure": "Cells were incubated for 30 minutes with 5 μM of the ratiometric dye Fura-2-AM (TEF Labs) in 0.1% BSA-sodium Ringer's solution. Fura-2-AM binds zinc with very high affinity. After incubation, the cells were washed in Ringer's solution and the cover glass mounted on a holder that allowed the perfusion of liquids into the cells. Signals resulting from Ca^+2 or Zn^+2 changes were distinguished by using the intracellular zinc chelator TPEN. Changes in intracellular cation concentration were monitored by a single cell imaging system, consisting of a Zeiss Axiovert 100, inverted microscope, Polychrome II monochromator (TILL Photonics) and a cooled CCD (PCO). The data was acquired and processed by Axon Imaging Workbench 2, Excel and KleidaGraph. Fura-2 was excited at 340 nm and 380 nm and the image obtained with a 510 nm long-pass filter. The data was analyzed post acquisition, by selecting single cells (30-50) from the field of view and recording their activity.\nTo measure the accumulation of intracellular zinc, HEK 293 cells were superfused with Ca-free, zinc-containing Ringer solution, and the […] of Fura-2 was evaluated. Fura-2 is a highly sensitive probe for changes in intracellular Zn^2+ concentration."}, "LTCC [2]": {"tested_on": "LTCC", "test": "Immunoprecipitation with ZnT-1 antibody and Western blot with LTCC antibody, HEK 293 cells", "format": "binding, human", "conditions": "HEK 293 cells co-transfected with LTCC and ZnT-1 (FIG. 11)", "procedure": "as §1\n(§2) Immunopercipitation using ZnT-1 antibody followed by Western blot with LTCC antibody was performed."}, "LTCC [3]": {"tested_on": "LTCC", "test": "LTCC expression by immunoblot, HEK 293 cells transfected with LTCC", "format": "cell-based, human", "conditions": "presence or absence of ZnT-1 (FIG. 7)", "procedure": "as §1\n(§3) Thus, ZnT-1 putative regulation of LTCC is likely to be at the functional level, and not at the expression level."}, "HEK 293 cells": {"tested_on": "HEK 293 cells", "test": "Zinc efflux in HEK 293 cells transfected with ZnT-1", "format": "cell-based, human", "conditions": "cells transfected with ZnT-1 vs non-transfected (FIG. 3)", "procedure": "(§4) PC12 and human embryonic kidney (HEK) 293 cells were grown in DMEM medium (Sigma) as described [Montrose Rafizadeh, C. et al. (1997) J. Cell Physiol. 170:299-308], and seeded on cover slides for 1-2 days prior to measurements.\n(§5) HEK 293 cells were transiently transfected with 3 μg of plasmid containing ZnT-1 (kindly provided by Dr. R. D. Palmiter, Howard Hughes Medical Institute, University of Washington, Seattle, Wash.) or vector alone, using the calcium precipitation method as described [Sekler, I. et al. (1995) J Biol. Chem. 270:11251-6]. Pherochromocytoma PC12 cells were co-transfected with ZnT-1 or EYFP (Clontech) for control, using the Fugene-6 reagent (Roche). Measurements were performed 36-48 hours following transfection.\n(§6) Cells were incubated for 30 minutes with 5 μM of the ratiometric dye Fura-2-AM (TEF Labs) in 0.1% BSA-sodium Ringer's solution. Fura-2-AM binds zinc with very high affinity. […] Changes in intracellular cation concentration were monitored by a single cell imaging system, consisting of a Zeiss Axiovert 100, inverted microscope, Polychrome II monochromator (TILL Photonics) and a cooled CCD (PCO). […] The data was analyzed post acquisition, by selecting single cells (30-50) from the field of view and recording their activity."}, "LTCC [4]": {"tested_on": "LTCC", "test": "Zinc influx into HEK 293 cells transfected with LTCC alone or with ZnT-1", "format": "cell-based, human", "procedure": "as §4\nas §5, with “transfection. […]” for “transfection.”\nas §6, with “solution.” for “solution. Fura-2-AM binds zinc with very high affinity.”\nRates of zinc influx into HEK293 cells transfected with LTCC only or co-transfected with LTCC and ZnT-1 were measured. […]"}, "L-type Ca channels": {"tested_on": "L-type Ca channels", "test": "Ca influx into depolarized PC12 cells expressing endogenous L-type Ca channels", "format": "cell-based", "conditions": "ZnT-1 transfected vs control PC12 cells, 1.8 mM calcium, high K+ (FIG. 8)", "procedure": "as §4, §5\nCells were superfused with a Ringer's solution containing: 120 mM NaCl, 5 mM KCl, 20 mM glucose, 10 mM Hepes, 0.5 mM MgCl, 1.8 mM CaCl2 at pH 7.4. […]\nas §6, with “solution.” for “solution. Fura-2-AM binds zinc with very high affinity.”, “activity. […]” for “activity.”"}, "LTCC [5]": {"tested_on": "LTCC", "test": "Immunoprecipitation with ZnT-1 antibody and Western blot with LTCC antibody, cardiac tissue", "format": "binding", "conditions": "mouse cardiac tissue expressing both ZnT-1 and LTCC (FIG. 11)", "procedure": "as §1, §2"}, "L-type Ca channel (LTCC)": {"tested_on": "L-type Ca channel (LTCC)", "test": "Zinc influx into HEK 293 cells, Fura-2 fluorescence", "format": "cell-based, human", "conditions": "control vs ZnT-1 transfected HEK 293 cells, 400 μM zinc (FIG. 4a)", "procedure": "as §4\nas §5, with “transfection. […]” for “transfection.”\nas §6, with “solution.” for “solution. Fura-2-AM binds zinc with very high affinity.”, “activity. […]” for “activity.”\nControl and ZnT-1 transfected HEK 293 cells were exposed to 400 μM zinc, and the rate of zinc influx was monitored over time (FIG. 4a-b)."}, "LTCC [6]": {"tested_on": "LTCC", "test": "LTCC expression by immunoblot, PC12 cells endogenously expressing LTCC", "format": "cell-based", "conditions": "presence or absence of ZnT-1 (FIG. 7)", "procedure": "as §1, §3"}},
  "note": "“Also recorded” adds a separate entry of the source.",
  "data": [
    {"molecule": "[Zn+2]", "note": "[Zinc, ZnSO4]", "values": [
      {"measurement": "rate of zinc influx", "setting": "LTCC [1]", "value": "reduction of zinc influx"},
      {"measurement": "ZnT-1 expression", "setting": "ZnT-1; listed as Zn^2+", "value": "induced by Zn^2+ in a dose-dependent manner"},
      {"measurement": "ZnT-1 expression", "setting": "ZnT-1; listed as Zn^+2", "value": "induced by Zn^+2 in a dose-dependent manner"}
    ]},
    {"molecule": "c1ccc(CN(CCN(Cc2ccccn2)Cc2ccccn2)Cc2ccccn2)nc1", "note": "[TPEN, tetrakis-(2-pyridylmethyl)ethylenediamine]", "values": [
      {"measurement": "Fura-2 fluorescence signal", "setting": "intracellular zinc", "value": "lowered the fluorescence signal; also recorded: eliminated"}
    ]},
    {"molecule": "ZnT-1: protein encoded by the gene ZnT-1, originally described as a zinc transporter; GenBank Accession No. U17132; expressed by transfection (protein, UniProt Q9Y6M5 1-507, looked up, protein encoded by the gene ZnT-1, originally described as a zinc transporter; expressed by transfection) Proton-coupled zinc …: MGCWGRNRGRLLCMLALTFMFMVLEVVVSRVTSSLAMLSDSFHMLSDVLALVVALVAERFARRTHATQKNTFGWIRAEVMGALVNAIFLTGLCFAILLEAIERFIEPHEMQQPLVVLGVGVAGLLVNVLGLCLFHHHSGFSQDSGHGHSHGGHGHGHGLPKGPRVKSTRPGSSDINVAPGEQGPDQEETNTLVANTSNSNGLKLDPADPENPRSGDTVEVQVNGNLVREPDHMELEEDRAGQLNMRGVFLHVLGDALGSVIVVVNALVFYFSWKGCSEGDFCVNPCFPDPCKAFVEIINSTHASVYEAGPCWVLYLDPTLCVVMVCILLYTTYPLLKESALILLQTVPKQIDIRNLIKELRNVEGVEEVHELHVWQLAGSRIIATAHIKCEDPTSYMEVAKTIKDVFHNHGIHATTIQPEFASVGSKSSVVPCELACRTQCALKQCCGTLPQAPSGKDAEKTPAVSISCLELSNNLEKKPRRTKAENIPAVVIEIKNMPNKQPESSL", "values": [
      {"measurement": "co-immunoprecipitation of ZnT-1 with LTCC", "setting": "LTCC [2]", "value": "much higher co-immunopercipitation; also recorded: reveals a band"},
      {"measurement": "LTCC expression level", "setting": "LTCC [3]", "value": "Neither cell type showed changes; also recorded: not changed"},
      {"measurement": "zinc efflux", "setting": "HEK 293 cells", "value": "not accelerated"},
      {"measurement": "zinc influx", "setting": "LTCC [4]; HEK 293, co-expression of LTCC and ZnT-1 vs LTCC alone and non-transfected control (FIG. 6)", "value": "reduction in the zinc influx to levels comparable to control; also recorded: reduction in the cation influx to levels comparable to control"},
      {"measurement": "reduction in rate of zinc permeation through LTCC", "setting": "LTCC [4]; HEK293 co-transfected with LTCC and ZnT-1 vs LTCC alone (FIG. 4c)", "value": 5, "unit": "fold"},
      {"measurement": "rate of Ca influx", "setting": "L-type Ca channels", "value": "inhibits the rate of Ca influx"},
      {"measurement": "co-immunoprecipitation of ZnT-1 with LTCC", "setting": "LTCC [5]", "value": "A similar effect; also recorded: reveals a band"},
      {"measurement": "rate of zinc influx", "setting": "L-type Ca channel (LTCC)", "value": "attenuated"},
      {"measurement": "LTCC expression level", "setting": "LTCC [6]", "value": "Neither cell type showed changes; also recorded: not changed; also recorded: without changing LTCC expression"}
    ]}
  ]
}
